Test results published in paper PMC7802366 (The Journal of Cell Biology, 2021).

B1: His-SEPT9 (recombinant full-length SEPT9 isoform 1) (natural protein, human, UniProt Q9UHD8-1 1-586, looked up)
chain: MKKSYSGGTRTSSGRLRRLGDSSGPALKRSFEVEEVETPNSTPPRRVQTPLLRATVASSTQKFQDLGVKNSEPSARHVDSLSQRSPKASLRRVELSGPKAAEPVSRRTELSIDISSKQVENAGAIGPSRFGLKRAEVLGHKTPEPAPRRTEITIVKPQESAHRRMEPPASKVPEVPTAPATDAAPKRVEIQMPKPAEAPTAPSPAQTLENSEPAPVSQLQSRLEPKPQPPVAEATPRSQEATEAAPSCVGDMADTPRDAGLKQAPASRNEKAPVDFGYVGIDSILEQMRRKAMKQGFEFNIMVVGQSGLGKSTLINTLFKSKISRKSVQPTSEERIPKTIEIKSITHDIEEKGVRMKLTVIDTPGFGDHINNENCWQPIMKFINDQYEKYLQEEVNINRKKRIPDTRVHCCLYFIPATGHSLRPLDIEFMKRLSKVVNIVPVIAKADTLTLEERVHFKQRITADLLSNGIDVYPQKEFDEDSEDRLVNEKFREMIPFAVVGSDHEYQVNGKRILGRKTKWGTIEVENTTHCEFAYLRDLLIRTHMQNIKDITSSIHFEAYRVKRLNEGSSAMANGMEEKEPEAPEM
B2: His-SEPT9 NTE domain (aa 1–283) (domain or fragment, human, UniProt Q9UHD8-1 1-283, looked up)
chain: MKKSYSGGTRTSSGRLRRLGDSSGPALKRSFEVEEVETPNSTPPRRVQTPLLRATVASSTQKFQDLGVKNSEPSARHVDSLSQRSPKASLRRVELSGPKAAEPVSRRTELSIDISSKQVENAGAIGPSRFGLKRAEVLGHKTPEPAPRRTEITIVKPQESAHRRMEPPASKVPEVPTAPATDAAPKRVEIQMPKPAEAPTAPSPAQTLENSEPAPVSQLQSRLEPKPQPPVAEATPRSQEATEAAPSCVGDMADTPRDAGLKQAPASRNEKAPVDFGYVGIDS
B3: His-SEPT9 G domain (aa 283–586) (domain or fragment, human, UniProt Q9UHD8-1 283-586, looked up)
chain: SILEQMRRKAMKQGFEFNIMVVGQSGLGKSTLINTLFKSKISRKSVQPTSEERIPKTIEIKSITHDIEEKGVRMKLTVIDTPGFGDHINNENCWQPIMKFINDQYEKYLQEEVNINRKKRIPDTRVHCCLYFIPATGHSLRPLDIEFMKRLSKVVNIVPVIAKADTLTLEERVHFKQRITADLLSNGIDVYPQKEFDEDSEDRLVNEKFREMIPFAVVGSDHEYQVNGKRILGRKTKWGTIEVENTTHCEFAYLRDLLIRTHMQNIKDITSSIHFEAYRVKRLNEGSSAMANGMEEKEPEAPEM

How the values were obtained:
[1] = target: p150^GLUED subunit of dynactin, endogenous (human (endogenous in HEK-293), UniProt Q14203-1 1-1278); test: pull-down
[2] = target: dynein heavy chain (DHC), native (human (endogenous in HEK-293), UniProt Q14204 1-4646); test: pull-down

p150^GLUED subunit of dynactin, endogenous, sequence (Q14203 whole entry): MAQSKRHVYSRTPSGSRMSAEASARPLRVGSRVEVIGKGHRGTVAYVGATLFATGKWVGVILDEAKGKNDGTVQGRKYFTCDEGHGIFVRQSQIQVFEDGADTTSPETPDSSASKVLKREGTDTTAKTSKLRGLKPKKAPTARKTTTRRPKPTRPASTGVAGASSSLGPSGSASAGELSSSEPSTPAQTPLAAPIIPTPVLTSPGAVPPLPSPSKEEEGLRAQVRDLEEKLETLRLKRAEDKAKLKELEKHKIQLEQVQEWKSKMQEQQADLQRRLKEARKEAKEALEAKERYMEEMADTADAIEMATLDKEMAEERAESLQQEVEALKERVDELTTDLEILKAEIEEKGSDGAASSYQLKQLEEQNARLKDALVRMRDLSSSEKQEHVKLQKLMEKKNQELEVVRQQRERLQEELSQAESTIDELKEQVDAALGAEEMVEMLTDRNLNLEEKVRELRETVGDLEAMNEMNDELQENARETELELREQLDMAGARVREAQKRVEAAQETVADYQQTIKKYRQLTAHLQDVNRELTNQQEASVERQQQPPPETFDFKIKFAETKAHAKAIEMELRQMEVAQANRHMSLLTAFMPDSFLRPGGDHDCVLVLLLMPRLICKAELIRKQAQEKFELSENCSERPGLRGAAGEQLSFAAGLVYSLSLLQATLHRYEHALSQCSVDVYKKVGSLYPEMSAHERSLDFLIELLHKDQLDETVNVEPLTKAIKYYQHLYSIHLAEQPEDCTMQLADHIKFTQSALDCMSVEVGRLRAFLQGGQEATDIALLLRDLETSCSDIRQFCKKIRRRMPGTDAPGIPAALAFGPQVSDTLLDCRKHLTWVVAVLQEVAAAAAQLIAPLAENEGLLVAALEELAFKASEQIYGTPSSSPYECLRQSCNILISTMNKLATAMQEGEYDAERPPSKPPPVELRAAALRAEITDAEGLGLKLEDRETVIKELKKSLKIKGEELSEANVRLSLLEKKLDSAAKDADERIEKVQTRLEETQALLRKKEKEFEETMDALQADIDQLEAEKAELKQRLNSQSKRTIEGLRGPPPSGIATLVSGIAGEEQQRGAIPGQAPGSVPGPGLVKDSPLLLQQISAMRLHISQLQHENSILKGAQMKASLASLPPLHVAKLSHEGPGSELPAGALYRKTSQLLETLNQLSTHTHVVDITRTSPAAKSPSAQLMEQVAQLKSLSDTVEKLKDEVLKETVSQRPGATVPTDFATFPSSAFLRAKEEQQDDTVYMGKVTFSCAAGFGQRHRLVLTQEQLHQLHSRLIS

Binder | binding result [1] | binding result [2]
B1 | binds | binds
B2 | binds | –
B3 | binds | binds
